Results from publication PMC8780864, “Experimental Evidence of Intrinsic Disorder and Amyloid Formation by the Henipavirus W Proteins” (International Journal of Molecular Sciences, 2022).

B1: Hendra virus W protein, N-terminally hexahistidine tagged (from pDEST17OI/HeVW) (natural protein)
chain: MDKLDLVNDGLDIIDFIQKNQKEIQKTYGRSSIQQPSTKDRTRAWEDFLQSTSGEHEQAEGGMPKNDGGTEGRNVEDLSSVTSSDGTIGQRVSNTRAWAEDPDDIQLDPMVTDVVYHDHGGECTGHGPSSSPERGWSYHMSGTHDGNVRAVPDTKVLPNAPKTTVPEEVREIDLIGLEDKFASAGLNPAAVPFVPKNQSTPTEEPPVIPEYYYGSGRRGDLSKSPPRGNVNLDSIKIYTSDDEDENQLEYEDEFAKSSSEVVIDTTPEDNDSINQEEVVGDPSDQGLEHPFPLGKFPEKEETPDVRRKDSLMQDSCKRGGVPKRLPMLSEEFECSGSDDPIIQELEREGSHPGGSLRLREPPQSSGNSRNQPDRQLKTGDAASPGGVQRPGTPMPKSRIMPIKKGAQTRSLNMLGRKTCLGRRVVQPGMFADYPPTKKARVLLRRMSN
notes: not shown: His6, N-terminal, kept

Columns and labels:
[1] = molecular target: Nipah virus (Malaysia strain) W protein, N-terminally hexahistidine tagged (from pDEST17OI/NiVW) (Nipah virus (Malaysia strain)) (UniProt P0C1C7); test: MALDI-TOF MS of the intact protein
[2] = molecular target: Nipah virus (Malaysia strain) W protein, N-terminally hexahistidine tagged (from pDEST17OI/NiVW) (Nipah virus (Malaysia strain)) (UniProt P0C1C7); test: SEC
[3] = molecular target: the molecule itself; test: MALDI-TOF MS of the intact protein

Molecule	stoichiometry N [1]	stoichiometry N [2]	stoichiometry N [3]
Nipah virus (Malaysia strain) W protein, N-terminally hexahistidine tagged (from pDEST17OI/NiVW) (from UniProt P0C1C7 1-450) (natural protein)	2	2	–
B1	–	–	2
